Results as given in patent US20190127444A1 (published 2019).

How the values were obtained:
[1] = target: SdgB glycosylated SdrC4 protein (UniProt O86487 51-910); experiment: SPR
[2] = target: LukE, recombinant polyhistidine-tagged variant; experiment: SPR

B1: mAb 5133 PRASA A6 HC-L4-E (Table 1 Construct 15) (bispecific antibody)
heavy: EVQLVETGGGLVKPGGSLRLSCSASRFSFRDYYMTWIRQAPGKGPEWVSHISGSGSTIYYADSVRGRFTISRDNAKSSLYLQMDSLQADDTAVYYCARGGRATSYYWVHWGPGTLVTVSSASTKGPSVFPLAPSSKSTSGGTAALGCLVKDYFPEPVTVSWNSGALTSGVHTFPAVLQSSGLYSLSSVVTVPSSSLGTQTYICNVNHKPSNTKVDKKVEPKSCDKTHTCPPCPAPPVAGPDVFLFPPKPKDTLMISRTPEVTCVVVDVSHEDPEVKFNWYVDGVEVHNAKTKPREEQYNSTYRVVSVLTVLHQDWLNGKEYKCKVSNAALPAPIAKTISKAKGQPREPQVYTLPPSRDELTKNQVSLTCLVKGFYPSDIAVEWESNGQPENNYKTTPPVLDSDGSFFLYSKLTVDKSRWQQGNVFSCSVMHEALHNRFTQKSLSLSPGKGGGGSGGGGSGGGGSGGGGSMLPAPKNLVVSRVTEDSARLSWTAPDAAFDSFHIEYAEPWVWGEAIVLTVPGSERSYDLTGLKPGTEYVVFIGGVKGGHNSTPLSAIFTT
light: EIVLTQSPATLSLSPGERATLSCRASQSVSGYLGWYQQKPGQAPRLLIYGASSRATGIPDRFSGSGSGTDFTLTISRLEPEDFAVYYCQQYGSSPLTFGGGTKLEIKRTVAAPSVFIFPPSDEQLKSGTASVVCLLNNFYPREAKVQWKVDNALQSGNSQESVTEQDSKDSTYSLSSTLTLSKADYEKHKVYACEVTHQGLSSPVTKSFNRGEC
Q: What does the source list for B1?
A: Kd [1]: 0.63 nM; Kd [2]: 0.88 nM

B2: mAb 5133 PRASA A6 HC-L4-E-L4-AB (Table 1 Construct 11) (bispecific antibody)
heavy: EVQLVETGGGLVKPGGSLRLSCSASRFSFRDYYMTWIRQAPGKGPEWVSHISGSGSTIYYADSVRGRFTISRDNAKSSLYLQMDSLQADDTAVYYCARGGRATSYYWVHWGPGTLVTVSSASTKGPSVFPLAPSSKSTSGGTAALGCLVKDYFPEPVTVSWNSGALTSGVHTFPAVLQSSGLYSLSSVVTVPSSSLGTQTYICNVNHKPSNTKVDKKVEPKSCDKTHTCPPCPAPPVAGPDVFLFPPKPKDTLMISRTPEVTCVVVDVSHEDPEVKFNWYVDGVEVHNAKTKPREEQYNSTYRVVSVLTVLHQDWLNGKEYKCKVSNAALPAPIAKTISKAKGQPREPQVYTLPPSRDELTKNQVSLTCLVKGFYPSDIAVEWESNGQPENNYKTTPPVLDSDGSFFLYSKLTVDKSRWQQGNVFSCSVMHEALHNRFTQKSLSLSPGKGGGGSGGGGSGGGGSGGGGSMLPAPKNLVVSRVTEDSARLSWTAPDAAFDSFHIEYAEPWVWGEAIVLTVPGSERSYDLTGLKPGTEYVVFIGGVKGGHNSTPLSAIFTTGGGGSGGGGSGGGGSGGGGSMLPAPKNLVVSRVTEDSARLSWTAPDAAFDSFWITYEEKFYRGEAIVLTVPGSERSYDLTGLKPGTEYKVWIVGVKGGQGSWPLSAIFTT
light: EIVLTQSPATLSLSPGERATLSCRASQSVSGYLGWYQQKPGQAPRLLIYGASSRATGIPDRFSGSGSGTDFTLTISRLEPEDFAVYYCQQYGSSPLTFGGGTKLEIKRTVAAPSVFIFPPSDEQLKSGTASVVCLLNNFYPREAKVQWKVDNALQSGNSQESVTEQDSKDSTYSLSSTLTLSKADYEKHKVYACEVTHQGLSSPVTKSFNRGEC
Q: What does the source list for B2?
A: Kd [1]: 0.91 nM; Kd [2]: 1.01 nM
